T1: native spike complex (glycoprotein complex, GPC) of Machupo virus (MACV) (Machupo virus (MACV), UniProt Q6IUF7 2-496)
T1 sequence: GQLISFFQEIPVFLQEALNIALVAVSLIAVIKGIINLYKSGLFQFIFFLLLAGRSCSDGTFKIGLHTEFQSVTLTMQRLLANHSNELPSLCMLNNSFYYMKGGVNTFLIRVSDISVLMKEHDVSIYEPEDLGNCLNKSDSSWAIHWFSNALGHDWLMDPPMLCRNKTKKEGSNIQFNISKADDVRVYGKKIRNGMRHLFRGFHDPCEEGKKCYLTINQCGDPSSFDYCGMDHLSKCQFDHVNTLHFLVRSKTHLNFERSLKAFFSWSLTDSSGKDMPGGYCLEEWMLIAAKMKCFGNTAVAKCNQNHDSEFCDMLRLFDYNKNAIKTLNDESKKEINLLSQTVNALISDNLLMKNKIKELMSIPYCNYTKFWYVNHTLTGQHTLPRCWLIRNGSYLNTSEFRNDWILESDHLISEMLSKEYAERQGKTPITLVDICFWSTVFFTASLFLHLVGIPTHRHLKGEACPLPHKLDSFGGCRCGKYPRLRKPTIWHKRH

B1: soluble apical domain (sAD) of Neotoma albigula (White-throated woodrat) TfR1 (receptor)
chain: GSKIQVKCSAPNSVTITNASGGLYLVEYPEGYVAYSKATEVTGKLVHANFGTKKDFEDLDYAVNGSIVIVRAGKITIAEKVANAQSFNAIGVLIYKDRTKYPISRADEPLQGHSGLPSIPVQTISREAAEKLFQNMERDCPRSWNTDSSCKLELLQNRNVKLTVNNCLKE

Legend:
[1] = biological target: native spike complex (glycoprotein complex, GPC) of Sabia virus (SABV) (Sabia virus (SABV)); experiment: cell-based or functional assay
[2] = biological target: native spike complex (glycoprotein complex, GPC) of Junin virus (JUNV) (Junin virus (JUNV)); experiment: cell-based or functional assay
[3] = biological target: T1, native spike complex (glycoprotein …); experiment: cell-based or functional assay
[4] = biological target: GP1MACV-Fc (GP1 domain of Machupo virus fused at its C' terminus to an antibody Fc portion) (Machupo virus (MACV)) (UniProt Q6IUF7); experiment: SPR (Biacore T200), single cycle kinetics; […]; 1:1 model
[5] = biological target: GP1JUNV-Fc (GP1 domain of Junin virus fused at its C' terminus to an antibody Fc portion) (Junin virus (JUNV)); experiment: as above
[6] = biological target: GP1SBOV-Fc (GP1 domain of Sabia virus fused at its C' terminus to an antibody Fc portion) (Sabia virus (SABV)); experiment: SPR (Biacore T200), single-cycle kinetics; […]; 1:1 model fit

Molecule	IC50 values (µg/ml), neutralization of pseudotyped virus [1]	IC50 values (µg/ml), neutralization of pseudotyped virus [2]	pseudovirus neutralisation, IC50 (read off the curve) [3]	Kd [4]	Kd [5]	Kd [6]
Arenacept (sAD fused at its C'-terminus to an Fc portion of IgG1) (Fc fusion)	3.5 µg/mL	2.4 µg/mL				
B1			~10 nM	4 nM	1000 nM	63 nM

— US20200392203A1 (YEDA RESEARCH AND DEVELOPMENT, published 2020)
